The results in this text go back to patent publication US20220267407A1 (published 2022).

Test [1] concerns the target T1, LMP1 (EBV) peptide on HLA-C*15:02 (human).
T1 peptide: QQNWWTLLV
Nature of the test: half-maximum IFN-gamma release; peptide titration on K562-HLA-C*15:02, ELISA after 24 h, E:T 1:1; full-length, on cells. (ELISA stands for enzyme-linked immunosorbent assay.)

Test [2] concerns the target T2, LMP1 (EBV) peptide on HLA-C*15:02 (human).
T2 peptide: NSNEGRHHL
In words: cytokine release.

The target of test [3] is T3, LMP1 (EBV) peptide on HLA-C*15:02 (human).
T3 peptide: DSLPHPQQA
Nature of the test: cytokine release.

The target of test [4] is T4, LMP1 (EBV) peptide on HLA-C*15:02 (human).
T4 peptide: YLQQNWWTL
Nature of the test: cytokine release.

Test [5] concerns the target T5, EBNA3C (EBV) peptide on HLA-B*44:02 (human).
T5 peptide: AEGGVGWRHW
In words: half-maximum IFN-gamma release; peptide titration on K562-HLA-B*44:02, ELISA after 24 h, E:T 1:1; full-length, on cells.

Test [6] addresses T6, EBNA3C (EBV) peptide on HLA-B*44:02 (human).
T6 peptide: LLTSPSQSW
In words: cytokine release.

The target of test [7] is T7, EBNA3C (EBV) peptide on HLA-B*44:02 (human).
T7 peptide: WLLTSPSQSW
In words: cytokine release.

The target in test [8] is T8, EBNA3C (EBV) peptide on HLA-B*44:02 (human).
T8 peptide: SERLVPEESY
Nature of the test: cytokine release.

The target in test [9] is T9, EBNA3C (EBV) peptide on HLA-C*06:02 (human).
T9 peptide: RRRGACVVY
Nature of the test: cytokine release.

Test [10] addresses T10, EBNA3C (EBV) peptide on HLA-C*06:02 (human).
T10 peptide: YAREAEVRF
In words: cytokine release.

Test [11] concerns the target T11, EBNA3C (EBV) peptide on HLA-C*06:02 (human).
T11 peptide: RRGACVVYD
Nature of the test: cytokine release.

For test [12], the target named is T12, EBNA3C (EBV) peptide on HLA-C*06:02 (human).
T12 peptide: ERYAREAEV
Nature of the test: cytokine release.

Test [13] concerns the target T13, EBNA3C (EBV) peptide on HLA-C*06:02 (human).
T13 peptide: NLLDFVRFM
In words: cytokine release.

The target in test [14] is T14, EBNA3C (EBV) peptide on HLA-C*06:02 (human).
T14 peptide: RRYRRIYDL
In words: cytokine release.

For test [15], the target named is T15, EBNA3C (EBV) peptide on HLA-C*06:02 (human).
T15 peptide: YRRIYDLIE
Nature of the test: cytokine release.

Test [16] has as its target T16, EBNA3C (EBV) peptide on HLA-C*06:02 (human).
T16 peptide: WQRRYRRIY
In words: cytokine release.

The target in test [17] is T17, EBNA3C (EBV) peptide on HLA-C*06:02 (human).
T17 peptide: QRRYRRIYD
Nature of the test: cytokine release.

In test [18] the target is T18, EBNA3C (EBV) peptide on HLA-C*06:02 (human).
T18 peptide: AREAEVRFL
Nature of the test: cytokine release.

In test [19] the target is T19, EBNA3C (EBV) peptide on HLA-C*06:02 (human).
T19 peptide: VRFMGVMSS
Nature of the test: cytokine release.

Test [20] concerns the target T20, EBNA3C (EBV) peptide on HLA-C*06:02 (human).
T20 peptide: NRVGADSIM
In words: cytokine release.

Test [21] deals with T21, EBNA3C (EBV) peptide on HLA-C*06:02 (human).
T21 peptide: QRRYRRIYDL
Nature of the test: cytokine release.

In test [22] the target is T22, EBNA3C (EBV) peptide on HLA-C*06:02 (human).
T22 peptide: SRRRRGACV
In words: cytokine release.

The target in test [23] is T23, EBNA3C (EBV) peptide on HLA-C*06:02 (human).
T23 peptide: YAREAEVRFL
In words: cytokine release.

The target in test [24] is T24, EBNA3C (EBV) peptide on HLA-C*06:02 (human).
T24 peptide: VYDDDVIEV
Nature of the test: cytokine release.

Test [25] concerns the target T25, EBNA3C (EBV) peptide on HLA-C*06:02 (human).
T25 peptide: RRGIKEHVI
Nature of the test: cytokine release.

The target of test [26] is T26, EBNA3C (EBV) peptide on HLA-C*06:02 (human).
T26 peptide: ARRGIKEHV
Nature of the test: cytokine release.

For test [27], the target named is T27, EBNA3C (EBV) peptide on HLA-C*06:02 (human).
T27 peptide: FLRGKWQRRY
In words: cytokine release.

Test [28] addresses T28, EBNA3C (EBV) peptide on HLA-C*06:02 (human).
T28 peptide: VRFLRGKWQ
In words: cytokine release.

Test [29] concerns the target T29, EBNA3C (EBV) peptide on HLA-C*06:02 (human).
T29 peptide: GCQNAARTL
Nature of the test: cytokine release.

For test [30], the target named is T30, EBNA3C (EBV) peptide on HLA-C*06:02 (human).
T30 peptide: RRYRRIYDLI
Nature of the test: cytokine release.

The target of test [31] is T31, EBNA3C (EBV) peptide on HLA-C*06:02 (human).
T31 peptide: RRRRGACVV
In words: cytokine release.

Test [32] deals with T32, EBNA3C (EBV) peptide on HLA-C*06:02 (human).
T32 peptide: LHHIWQNLL
In words: cytokine release.

Test [33] concerns the target T33, EBNA3C (EBV) peptide on HLA-C*06:02 (human).
T33 peptide: LRGKWQRRY
In words: cytokine release.

The target in test [34] is T34, LMP2A (EBV) peptide on HLA-A*02:01 (human).
T34 peptide: CLGGLLTMV
Nature of the test: the description's statement of this TCR's peptide sensitivity; K562-HLA-A*02:01 loaded with peptide, E:T 1:1; full-length, on cells.

Test [35] addresses T34, LMP2A (EBV) peptide on HLA-A*02:01. Nature of the test: half-maximum IFN-gamma release; peptide titration on K562-HLA-A*02:01, ELISA after 24 h, E:T 1:1; full-length, on cells.
Test [36] has as its target T35, LMP2A (EBV) peptide on HLA-A*02:01 (human).
T35 peptide: MCLGGLLTMV
Nature of the test: cytokine release.

The target in test [37] is T36, LMP1 (EBV) peptide on HLA-B*57:01 (human).
T36 peptide: IALYLQQNW
Nature of the test: half-maximum IFN-gamma release; peptide titration on K562-HLA-B*57:01, ELISA after 24 h, E:T 1:1; full-length, on cells.

Test [38] concerns the target T37, LMP1 (EBV) peptide on HLA-B*57:01 (human).
T37 peptide: LAILIWMYY
Nature of the test: cytokine release.

In test [39] the target is T38, LMP1 (EBV) peptide on HLA-B*57:01 (human).
T38 peptide: ALYLQQNWW
In words: cytokine release.

The target of test [40] is T39, LMP1 (EBV) peptide on HLA-B*57:01 (human).
T39 peptide: LAILIWMYYH
In words: cytokine release.

The target of test [41] is T40, LMP1 (EBV) peptide on HLA-B*57:01 (human).
T40 peptide: NSNEGRHHL
Nature of the test: cytokine release.

The target in test [42] is T41, LMP1 (EBV) peptide on HLA-B*57:01 (human).
T41 peptide: LLLFLAILIW
In words: cytokine release.

The target in test [43] is T42, LMP1 (EBV) peptide on HLA-B*57:01 (human).
T42 peptide: LLFLAILIW
Nature of the test: cytokine release.

For test [44], the target named is T43, LMP1 (EBV) peptide on HLA-B*57:01 (human).
T43 peptide: IALYLQQNWW
In words: cytokine release.

Test [45] has as its target T44, LMP1 (EBV) peptide on HLA-B*57:01 (human).
T44 peptide: IIALYLQQNW
Nature of the test: cytokine release.

The target of test [46] is T45, LMP1 (EBV) peptide on HLA-B*57:01 (human).
T45 peptide: WTLLVDLLW
In words: cytokine release.

In test [47] the target is T46, LMP1 (EBV) peptide on HLA-B*57:01 (human).
T46 peptide: WWTLLVDLLW
In words: cytokine release.

Test [48] has as its target T47, LMP1 (EBV) peptide on HLA-B*57:01 (human).
T47 peptide: FLAILIWMYY
In words: cytokine release.

The target of test [49] is T48, LMP1 (EBV) peptide on HLA-B*57:01 (human).
T48 peptide: WTLLVDLLWL
In words: cytokine release.

B1: TCR83 (TCR, V domains shown)
Valpha: GQNIDQPTEMTATEGAIVQINCTYQTSGFNGLFWYQQHAGEAPTFLSYNVLDGLEEKGRFSSFLSRSKGYSYLLLKELQMKDSASYLCAAVNNAGNMLTFGGGTRLMVKP
Vbeta: DTAVSQTPKYLVTQMGNDKSIKCEQNLGHDTMYWYKQDSKKFLKIMFSYNNKELIINETVPNRFSPKSPDKAHLNLHINSLELGDSAVYFCASSQGYGGPSTDTQYFGPGTRLTVL
B1: the EC50 of peptide in [1] is 2 nM. In addition, the binding result in test [2], in test [3] and in test [4] was “no recognition” throughout.

B2: TCR58 (TCR, V domains shown)
Valpha: RKEVEQDPGPFNVPEGATVAFNCTYSNSASQSFFWYRQDCRKEPKLLMSVYSSGNEDGRFTAQLNRASQYISLLIRDSKLSDSATYLCVASGDSSYKLIFGSGTRLLVRP
Vbeta: EPEVTQTPSHQVTQMGQEVILRCVPISNHLYFYWYRQILGQKVEFLVSFYNNEISEKSEIFDDQFSVERPDGSNFTLKIRSTKLEDSAMYFCASSDPLSTYNEQFFGPGTRLTVL
Molecule B2 showed an EC50 of peptide in test [5] of 300 nM. Moreover, the binding result in test [6], in test [7] and in [8] was “no recognition” in each case.

B3: TCR64 (TCR, V domains shown)
Valpha: TQLLEQSPQFLSIQEGENLTVYCNSSSVFSSLQWYRQEPGEGPVLLVTVVTGGEVKKLKRLTFQFGDARKDSSLHITAAQPGDTGLYLCAGDVDTGTASKLTFGTGTRLQVTL
Vbeta: DVKVTQSSRYLVKRTGEKVFLECVQDMDHENMFWYRQDPGLGLRLIYFSYDVKMKEKGDIPEGYSVSREKKERFSLILESASTNQTSMYLCASSLLGSGALYEQYFGPGTRLTVT
For the molecule B3, the binding result in test [9], in [10], in test [11], in test [12], in test [13] and in [14] was “no recognition” throughout. For the same molecule, the binding result in test [15], in test [16], in test [17], in [18], in [19] and in test [20] was “no recognition” each time. In addition, the binding result in [21], in test [22], in [23], in test [24], in test [25] and in test [26] was “no recognition” in each case. Further, the binding result in [27], in [28], in test [29], in test [30], in test [31] and in test [32] was “no recognition” in each case. Also, in test [33], the binding result was “no recognition”.

B4: TCR06 (TCR, V domains shown)
Valpha: KQEVTQIPAALSVPEGENLVLNCSFTDSAIYNLQWFRQDPGKGLTSLLLIQSSQREQTSGRLNASLDKSSGRSTLYIAASQPGDSATYLCAVLMDSNYQLIWGAGTKLIIKP
Vbeta: DAGITQSPRYKITETGRQVTLMCHQTWSHSYMFWYRQDLGHGLRLIYYSAAADITDKGEVPDGYVVSRSKTENFPLTLESATRSQTSVYFCASSEDGMNTEAFFGQGTRLTVV
For B4, the values for the EC50 of peptide in test [34] and in [35] were ≤ 10 nM and 6 nM, respectively. The binding result in [36] is on record as “recognises”.

B5: TCR50 (TCR, V domains shown)
Valpha: AQSVTQLDSHVSVSEGTPVLLRCNYSSSYSPSLFWYVQHPNKGLQLLLKYTSAATLVKGINGFEAEFKKSETSFHLTKPSAHMSDAAEYFCVVMATGFQKLVFGTGTRLLVSP
Vbeta: DSGVTQTPKHLITATGQRVTLRCSPRSGDLSVYWYQQSLDQGLQFLIQYYNGEERAKGNILERFSAQQFPDLHSELNLSSLELGDSALYFCASSVTSGSDEQFFGPGTRLTVL
B5: the EC50 of peptide in test [37] is 30 nM. In addition, the binding result was “no recognition” in [38]; “recognises” in [39]; “no recognition” in [40]; “no recognition” in test [41]; “no recognition” in test [42]; “no recognition” in test [43]. Also, the binding result in [44] was “recognises”; in test [45] it was “recognises”; in test [46], “no recognition”; in [47] it was “no recognition”; in [48] it was “no recognition”; in test [49] it was “no recognition”.

B6: TCR25 (TCR, V domains shown)
Valpha: AQSVTQLDSHVSVSEGTPVLLRCNYSSSYSPSLFWYVQHPNKGLQLLLKYTSAATLVKGINGFEAEFKKSETSFHLTKPSAHMSDAAEYFCVAWDTGFQKLVFGTGTRLLVSP
Vbeta: EPEVTQTPSHQVTQMGQEVILRCVPISNHLYFYWYRQILGQKVEFLVSFYNNEISEKSEIFDDQFSVERPDGSNFTLKIRSTKLEDSAMYFCASKALADTQYFGPGTRLTVL
B6 registered an EC50 of peptide in [5] of 600 nM. Further, the binding result in test [6], in [7] and in test [8] was “no recognition” in each case.
